{
  "source": "paper PMC13047697",
  "experiment_in_all_cases": "native MS",
  "key": {"SsoSSB WT [1]": {"molecular_target": "T1, SsoSSB WT (Saccharolobus solfataricus DSM 1617 …, UniProt Q97W73 1-148)", "T1 sequence": "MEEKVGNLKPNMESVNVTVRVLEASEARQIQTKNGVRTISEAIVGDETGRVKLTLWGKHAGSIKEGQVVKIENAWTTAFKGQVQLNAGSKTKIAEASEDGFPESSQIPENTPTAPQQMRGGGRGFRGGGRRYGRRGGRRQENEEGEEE"}, "SsoSSB WT [2]": {"molecular_target": "T1, SsoSSB WT", "remark": "listed apart in the source"}, "SsoSSB WT [3]": {"molecular_target": "T1, SsoSSB WT", "remark": "listed apart in the source"}, "SsoSSB WT [4]": {"molecular_target": "T1, SsoSSB WT", "remark": "listed apart in the source"}},
  "note": "Where two headings read alike, the source gives them in different places.",
  "data": [
    {"binder": "TTTTTTTTTTTTTTTTTTTTTTTTTTTTTT (ssDNA)", "note": "[T30]", "values": [
      {"measurement": "Kd", "setting": "SsoSSB WT [1]", "value": 266, "unit": "nM"},
      {"measurement": "Kd", "setting": "SsoSSB WT [2]", "value": 209, "unit": "nM"},
      {"measurement": "Kd", "setting": "SsoSSB WT [3]", "value": 197, "unit": "nM"},
      {"measurement": "Kd", "setting": "SsoSSB WT [4]", "value": 253, "unit": "nM"}
    ]},
    {"binder": "TTTTTTTTTTTTTTT (ssDNA)", "note": "[T15]", "values": [
      {"measurement": "Kd", "setting": "SsoSSB WT [1]", "value": 1320, "unit": "nM"},
      {"measurement": "Kd", "setting": "SsoSSB WT [2]", "value": 2080, "unit": "nM"},
      {"measurement": "Kd", "setting": "SsoSSB WT [3]", "value": 1940, "unit": "nM"},
      {"measurement": "Kd", "setting": "SsoSSB WT [4]", "value": 1240, "unit": "nM"}
    ]}
  ]
}
